From patent publication EP1652858A1 come the findings set out here.

Read-outs that look alike come from different tables or passages of the source.

One test has as its target HLA-A0101 (human). As to the kind of experiment: competition vs labelled reference peptide.
The next test deals with HLA-A0201 (human). As to the kind of experiment: competition vs labelled reference peptide.
The next test deals with HLA-A2402 (human). As to the kind of experiment: competition vs labelled reference peptide.
The next test has as its target HLA-B0702 (human). Kind of test: competition vs labelled reference peptide.
The next test addresses HLA-B*0702 (human). As to the kind of experiment: competition binding assay, purified HLA, labelled probe peptide.
Where [1] appears, read: remark: other sources report otherwise.

One may read the Ki as a dissociation constant, usually derived from enzyme kinetics or from competition with a known ligand. A low value points to tighter binding. In the test with HLA-A0101 (human), LVDILAGYGA (modifications not checked) yielded a Ki of 419 nM.

In the test with HLA-A0201 (human), LVLNPSVAA (modifications not checked) gave a Ki of 2880 nM.

In the test with HLA-A0201 (human), SMVGNWAKV (modifications not checked) returned an inhibition constant (Ki) of 158 nM.

Molecule NIIMYAPTL (modifications not checked) displayed a Ki with HLA-A0201 (human) of 70 nM.

For NLPGCSFSI (modifications not checked), the Ki with HLA-A0201 (human) (setting [1]) was 83 nM; in the test with HLA-A2402 (human) (setting [1]), 8 nM.

On to FLLALLSCLT (modifications not checked), for which the Ki with HLA-A0201 (human) came out at 132 nM.

For ALAHGVRVL (modifications not checked), the inhibitory constant (Ki) in the test with HLA-A0201 (human) (setting [1]) was determined as 674 nM; in the test with HLA-B0702 (human) (setting [1]) it was 7950 nM.

QIVGGVYLL (modifications not checked) yielded a Ki with HLA-A0201 (human) of 228 nM.

Turning to LADGGCSGGAY (modifications not checked), the inhibition constant (Ki) with HLA-A0101 (human) was determined as 60 nM.

For the molecule LYGNEGLGW (modifications not checked), the inhibition constant Ki with HLA-A2402 (human) was found to be 5 nM.

In the test with HLA-A0101 (human) (setting [1]), KSTKVPAAY (modifications not checked) yielded a Ki of 950 nM.

With PLLLLLLAL (modifications not checked), the Ki with HLA-A0201 (human) was found to be 6550 nM.

For the molecule FWAKHMWNF (modifications not checked), in the test with HLA-A2402 (human), the inhibition constant Ki was 2 nM.

With FTEAMTRYS (modifications not checked), in the test with HLA-A0101 (human), the inhibition constant (Ki) was determined as 6610 nM.

With FIPVESMET (modifications not checked), the Ki with HLA-A0201 (human) came to 934 nM.

In turn, TYSTYGKF (modifications not checked) registered a Ki in the test with HLA-A2402 (human) of 192 nM.

In the test with HLA-A0201 (human), YQATVCARA (modifications not checked) returned an inhibition constant Ki of 20 nM.

Turning to KVLVLNPSV (modifications not checked), in the test with HLA-A0201 (human), the inhibitory constant (Ki) worked out at 50 nM.

Regarding AARALAHGV (modifications not checked), the inhibitory constant (Ki) in the test with HLA-B0702 (human) was 209 nM.

With VIDTLTCGF (modifications not checked), in the test with HLA-A0101 (human), the Ki was found to be 1130 nM.

A word on the IC50: it is the concentration that inhibits the measured activity by half. APLGGAARA (modifications not checked): the Ki with HLA-B0702 (human) was 115 nM. The molecule further gave an IC50 with HLA-B*0702 (human) of 115 nM.

AVMGSSYGF (modifications not checked) had an inhibitory constant (Ki) with HLA-A2402 (human) (setting [1]) of 10 nM.

Regarding YYRGLDVSVI (modifications not checked), in the test with HLA-A2402 (human), the inhibitory constant (Ki) amounted to 437 nM.

Take MALYDVVST (modifications not checked): the Ki with HLA-A0201 (human) came out at 1140 nM.

In the case of AQPGYPWPL (modifications not checked), the Ki with HLA-A0201 (human) came out at 382 nM.

On to MGSSYGFQY (modifications not checked), for which the inhibitory constant (Ki) with HLA-A0101 (human) (setting [1]) turned out to be 1020 nM.

Turning to ATLGFGAYM (modifications not checked), the inhibitory constant (Ki) in the test with HLA-B0702 (human) is 13000 nM.

For the molecule CLVDYPYRL (modifications not checked), the Ki with HLA-A0201 (human) stood at 437 nM.

Regarding LTCGFADLM (modifications not checked), the inhibitory constant (Ki) with HLA-A0101 (human) came out at 3550 nM.

Regarding TWAQPGYPW (modifications not checked), the Ki in the test with HLA-A2402 (human) stood at 8 nM.

The molecule SWDQMWKCL (modifications not checked) showed an inhibition constant Ki in the test with HLA-A2402 (human) (setting [1]) of 670 nM.

GLGWAGWLL (modifications not checked) registered a Ki in the test with HLA-A2402 (human) of 68 nM.

As to GMFDSSVLC (modifications not checked), the Ki in the test with HLA-A0201 (human) is 71 nM.

Consider YIPLVGAPL (modifications not checked), for which the Ki with HLA-A0201 (human) (setting [1]) was found to be 337 nM.

As for IMACMSADL (modifications not checked), the Ki with HLA-A0201 (human) (setting [1]) was 66 nM.

In turn, SVFTGLTHI (modifications not checked) returned an inhibition constant Ki in the test with HLA-A0201 (human) (setting [1]) of 101 nM.

The molecule FTDNSSPPA (modifications not checked) returned an inhibitory constant (Ki) in the test with HLA-A0101 (human) of 10 nM.

As to PAAYAAQGY (modifications not checked), the inhibition constant Ki with HLA-A0101 (human) is 1610 nM.

VMGSSYGF (modifications not checked) yielded an inhibition constant (Ki) in the test with HLA-A2402 (human) (setting [1]) of 33 nM.

In the test with HLA-A0101 (human) (setting [1]), CYDAGCAWY (modifications not checked) came in with a Ki greater than 20000 nM.

The molecule WLGNIIMYA (modifications not checked) yielded a Ki in the test with HLA-A0201 (human) (setting [1]) of 33 nM.

In the test with HLA-A0201 (human) (setting [1]), IMAKNEVFCV (modifications not checked) yielded a Ki of 199 nM.

On to YLFNWAVRT (modifications not checked), for which, in the test with HLA-A0201 (human), the Ki is 29 nM.

As for PFYGKAIPI (modifications not checked), in the test with HLA-A2402 (human), the Ki worked out at 4 nM.

As to TLWARMILM (modifications not checked), the inhibition constant (Ki) in the test with HLA-A2402 (human) worked out at 2640 nM.

In the test with HLA-B*0702 (human), LPRRGPRLG (modifications not checked) yielded an IC50 of 124 nM.

As for AAKLSALGL (modifications not checked), the inhibition constant Ki with HLA-B0702 (human) is 277 nM. Besides, in the test with HLA-B*0702 (human), the IC50 worked out at 277 nM.

In the test with HLA-A0201 (human) (setting [1]), DLCGSVFLV (modifications not checked) returned an inhibition constant (Ki) of 789 nM.

RLYIGGPLT (modifications not checked) came in with a Ki with HLA-A0201 (human) of 845 nM.

PAVPQTFQV (modifications not checked) yielded an inhibitory constant (Ki) in the test with HLA-A2402 (human) of 991 nM.

Turning to GLTHIDAHF (modifications not checked), the Ki with HLA-A2402 (human) came to 10 nM.
